Reference: the DeepSol protein solubility set

Assay: soluble on expression in E. coli; label from the status in PepcDB or PDB records

Sequence	soluble on expression in E. coli
MTITPATHAISINPATGEQLSVLPWAGADDIENALQLAAAGFRDWRETNIDYRAEKLRDIGKALRARSEEMAQMITREMGKPINQARAEVAKSANLCDWYAEHGPAMLKAEPTLVENQQAVIEYRPLGTILAIMPWNFPLWQVMRGAVPIILAGNGYLLKHAPNVMGCAQLIAQVFKDAGIPQGVYGWLNADNDGVSQMIKDSRIAAVTVTGSVRAGAAIGAQAGAALKKCVLELGGSDPFIVLNDADLELAVKAAVAGRYQNTGQVCAAAKRFIIEEGIASAFTERFVAAAAALKMGDPRDEENALGPMARFDLRDELHHQVEKTLAQGARLLLGGEKMAGAGNYYPPTVLANVTPEMTAFREEMFGPVAAITIAKDAEHALELANDSEFGLSATIFTTDETQARQMAARLECGGVFINGYCASDARVAFGGVKKSGFGRELSHFGLHEFCNIQTVWKDRI	soluble
MTKAADDNIIVGLDIGTATVSALVGEILPDGQINIIGAGSSPSRGMDKGGVNDLESVVKSVQRAIDQAELMAECQISRVFISLSGKHIASRIEKGMGTISDEEVSQEDMDRAIHTAKSIKIGDEQ	not soluble
MTKHVAVLLAHGFEEAEAVIFIDIMRRLDIRVDILSCEATTALSTYFETPISADALLSDRLDHHYDAVMMPGGPKGTDSLTANPQVIAFLRRHIAQDKYICALCSSGAKVLAAHHLLAGRTYSTGDKLADKFADGAYLDQDVVVDGKFITAKGLGVSFEFAFTVARHLLSDNLPKVEHQASHIYFKHGSAQT	not soluble
MTKIAFVFPGQGAQKVGMGQDVAAEYPEAKKIYDDADERLGFSITEIITEGPIELLTKSENAQPALVSTSVAILRALETYGVKADYVAGHSLGEYSALVAGGFLEASDAIYLVRKRGELMEAAVPNGAGAMAAVLGVDRETLKTITEEVTKEGDAVQLANLNCPGQIVISGTTAGVEKAGEKAKESGAKRVLPLAVSGPFHSSLMEPAALAFRDVLAEVKISDGQIPVVNNVDAKETTDKSEISDKLIKQIYSPVLWEDIVEELIKNGVDTFVEIGSGKVLAGLIKKINRDVTVLSAGDAESVKSVAATLKGE	not soluble
MTKKYLTFDCYGTLINTEPLYQWVANLGLAVGLDPLTVRKAYATYEDDPASVNPYLDYSTLVRADLKHLDRLFEQRHFFESHYVECLEVQRHLLPYADVIPTLTAWQQLGYQLIIMSNSSWDIMPANIAALKVSFTAVVTAEDIQAYKPALAFFETVQERFKLTADNHWHIARGYESDVVPASAMQWPMIWINRDQRQPTSSERPTHMVTDLAAVKQWVN	not soluble
MTKLPQTQGVLNFIQKYLYNSTNYNFEDGSTQAINVPYPDSGVYENYILHYPDATSTELLDINIDQLYSEVMVLTDPKIERAYEYILEERDPGTSSTNILVTVGVE	not soluble
MTKNTSYHYSIIIPHKNTPRLLERCLCSIPTWDEIQIIIIDDNSNSESVDFSHFPGNGRKNTEVLFTKEGKGAGYARNIGLSHARGKWIIFADADDFFTADCFTILNEYMDSPHEVIYFNVRFVMSDNPSQESRRGTYYTNFFNDVNPENKLRYQSQVPWGKMIRRSFLSTFHIQFDETRIANDVYFSCLVGIYAPKATTDRRIIYYCTESGQSLAMSKQDRESLIIRFNASMKCNRLLRQEKIHYYLSPLPWCIPSAKTKEWLPAKYFFEYLFFFRLQAFKELYYAFSAILSHMNEPATKETDNQCNKKTTNLRE	not soluble
MTKQLPNLQVALDHSNLKGAITAAVSVGNEVDVIEAGTVCLLQVGSELVEVLRSLFPDKIIVADTKCADAGGTVAKNNAVRGADWMTCICSATIPTMKAARKAIEDINPDKGEIQVELYGDWTYDQAQQWLDAGISQAIYHQSRDALLAGETWGEKDLNKVKKLIEMGFRVSVTGGLSVDTLKLFEGVDVFTFIAGRGITEAKNPAGAARAFKDEIKRIWG	soluble
MTKQQIEKLADLLPPFAATLYLDMIPEFQEGYASYVYQTPKQDIQKRRIKQLTKNFERLLDTPSFYVMPVTRKTAEQLLADKGLAYHLLSTVAANQVFAAAVNEDQMLFQVLRNGARVAFVILQEKGEFLEMTLGILETVTENEVPAAIVEAVQTYLLADMQEKLPSLSIMVSQESSKLFYQEQGFVLLAKGCKPGNENDSDVCQLVKYFSKP	not soluble
MTKRSDSVAPKERINIKYVPATGDEQAEVELPHKMMVLGDFGLDDSRSLEDRQVMRIDKHTFNNVLNDADVSLAMSVPSALDATPNAELAVNLQFKSIQDFGPDRIARQVPELNKLLQLREALVALKGPLGNVPTFRKQLQQLLNDAHARKQLAQELDLVLEAPKAD	not soluble
MTLHELLEKPVWKMTGEELLFLAQQGSTQQEGDTQDKAPAKEERHFVYGLSGLARLFGCSLPTANRIKQSGKIDRAITQIGRKIIIDADLALELAGRKVGGRR	not soluble
MTLPIRNVAIIAHVDHGKTTLVDALLKQSGIFREGEDVPDCVMDSNALERERGITILSKNTAVRYKETLINIVDTPGHADFGGEVERVLGMVDGCLLIVDANEGPMPQTRFVLKKALEKGLRPIVVVNKIDRGQADPHVAVDKVLDLFLELGADEDQCDFPYLFASGMGGYAKENLEAESVDMQPLFDAILRHVPAPVGDPNKPLQLQVTTLDYSEYLGRIVIGRIHNGTIRAGQQAALVVEDGSIVKGKITKLMGFEGLKRVEMTEATAGYIVAVAGFADAYIGETITDPNEPQALPLIKVDEPTLQMTFWVNDSPFAGQEGKLVTSRQVRDRLFRELETNVALRVEETDSPDKFLVSGRGELHLGILIETMRREGFEFQVSQPQVIYRTVNGQPCEPYELLVLDVPADAVGSCIERLGQRKGEMQDMQPVAGDRTQLEFVIPARGLIGFRGEFMRMTRGEGIMNHSFLDYRQLSGDIEARNKGVLISFEEGISTFYAMKNAEDRGSFFITPGTKVYRGMIVGEHNRPQDLELNVCKTKQLTNHRASGGDELVQLQAPVDMSLERALEYIGPDELVEVTPQSIRLRKMAKKLAKR	not soluble
MTLPTTIYSFPAYLSRFSSTDKPVKLKFHQYARATLLSNRGRDHNCDGRRTVEIHKLDLSDWQAFNKLATRCNAYDGITMNGDNSFGWNHEATLDNIHAQKYNKAYAGARLTAELKYLLQDVESFEPNSKYTIHEVVLGPGYGTPDYTGQTIGYVVTLPAQMPNCWSSELPTIDLYIDQLRTVTGVSNALGFIIAALLNAYSDLPHDLKIGLRSLSSSAAIYSGLGFERVPQERDISCARMYLTPANHPDLWTQENGEWIYLRN	not soluble
MTLRTKDGLTLYTRRWDVESPRAVICLVHGLGEHSGRYEHVARFFNENGISFAAFDLRGHGRSEGKRGHAEYQQLMDDITLFLQSLDYDCPKILYGHSMGGNLALNYILRYDPDIAGGIISAPFLALPKELPKHLFFILKLLNVVAPSIQLSNGIDPNLISRDREVVEAYVSDPLVHDKISPRFILQSLEAGKWALENADRLRKPILLIHGTADQITSYRASQEFAKRAGELCKFVSYEGFYHEPHNEPEKERVLADMLKWIEEVI	not soluble
MTMYQTINEWVDYIDKGCSVLHLDFNVFKKELSLDIKVFEDEGEYTHKISFQNVASAYYSADVGDMRLEKIDPEEYNWQVFEMSYHPEGIGNLSNSIIPEYQSNANFLIDMNRMLIAIEAETVRFDDQSFYAYQLNTKLEHHHHHH	soluble
MTNKISSSDNLSNAVSATDDNASRTPNLNRRALVGGGVGLAARGALASGLQAATLPAGASQVPTTPAGRPMPYAIRPMPEDRRFGYAIVGLGKYALNQILPGFAGCQHSRIEALVSGNAEKAKIVAAEYGVDPRKIYDYSNFDKIAKDPKIDAVYIILPNSLHAEFAIRAFKAGKHVMCEKPMATSVADCQRMIDAAKAANKKLMIGYRCHYDPMNRAAVKLIRENQLGKLGMVTTDNSDVMDQNDPAQQWRLRRELAGGGSLMDIGIYGLNGTRYLLGEEPIEVRAYTYSDPNDERFVEVEDRIIWQMRFRSGALSHGASSYSTTTTSRFSVQGDKAVLLMDPATGYYQNLISVQTPGHANQSMMPQFIMPANNQFSAQLDHLAEAVINNKPVRSPGEEGMQDVRLIQAIYEAARTGRPVNTDWGYVRQGGY	soluble
MTNKQVEISMAEWDVMNIIWDKKSVSANEIVVEIQKYKEVSDKTIRTLITRLYKKEIIKRYKSENIYFYSSNIKEDDIKMKTAKTFLNKLYGGDMKSLVLNFAKNEELNNKEIEELRDILNDISKK	soluble
